Data on 17 molecules can be found in patent publication US20150147316A1 (Seagen, published 2015).

For experiment [1], the target named is T1, human CD33 (human, UniProt P20138 18-364).
T1 construct: Endogenous on HL-60 and HEL 92.1.7 AML cells, or recombinant on transfected HEK293F cells; The signal peptide is stated as amino acids 1-17; also called hCD33
Briefly: flow cytometry on HEL 92.1.7 cells; competition with 1 nM AlexaFluor-647 m2H12 (methods paragraph 148). As to the method: (§1) Cells were centrifuged, washed 3 times with PBS, and resuspended in 125 μL of a PBS+1% BSA solution. Fluorescence was analyzed using a flow cytometer, and the percent of saturated fluorescent signal was used to determine percent labeled 2H12 mAb bound. The EC50 was extrapolated by fitting the data to a sigmoidal dose-response curve with variable slope.
(§2) Humanized heavy and light chains were paired with chimeric light and heavy chains (chimeric chains composed of murine variable regions and human constant regions) respectively. The humanized/chimeric hybrid variants of CD33 mAb were tested for binding to human CD33 expressed on the surface of HEL 92.1.7 AML cells (Table 5). Heavy chains HC and HI were selected for further study. Humanized antibodies were expressed representing permutations of humanized heavy chains HC and HI and humanized light chains LA, LE and LG and binding to cells expressing human or cynomolgus (cyno) CD33 was determined (Table 6). The HILG antibody (2H12 HILG) was selected as the humanized antibody that most closely resembled the binding characteristics of the murine CD33 mAb m2H12. The HILG antibody is referred to as the h2H12 antibody ([…] 2H12 antibody). The KD for m2H12, h2H12, and h2H12 with an S239C mutation (EU numbering) in the IgG1 heavy chain (referred to as h2H12EC, for engineered cysteine), was determined for human CD33 expressed as an endogenous protein in two AML cell lines or as a recombinant protein in a HEK293F cell line. The KD for these antibodies was also determined for cyno CD33 expressed as a recombinant protein in a HEK293F cell line (Table 7).

The target of another experiment is T2, cynomolgus CD33 (cynomolgus).
T2 construct: Recombinant on transfected HEK293F cells; also called cyno CD33; cynoCD33
As to the kind of experiment: flow cytometry on HEK293F cells expressing cyno CD33; competition with 1 nM AlexaFluor-647 m2H12 (methods paragraph 148). The protocol: as §1, §2
(In general: In flow cytometry, cells or beads pass a laser one at a time.)

Experiment [2] concerns the target T1, human CD33. Briefly: flow cytometry on HEK293F cells expressing human CD33; competition with 1 nM AlexaFluor-647 m2H12 (methods paragraph 148). As to the method:
as §1, §2

Experiment [3] concerns the target T1, human CD33. As to the kind of experiment: flow cytometry on HEL 92.1.7 AML cells; competition with 1 nM AlexaFluor-647 m2H12 (methods paragraph 148). The protocol: as §1, §2

T1 sequence (P20138 18-364): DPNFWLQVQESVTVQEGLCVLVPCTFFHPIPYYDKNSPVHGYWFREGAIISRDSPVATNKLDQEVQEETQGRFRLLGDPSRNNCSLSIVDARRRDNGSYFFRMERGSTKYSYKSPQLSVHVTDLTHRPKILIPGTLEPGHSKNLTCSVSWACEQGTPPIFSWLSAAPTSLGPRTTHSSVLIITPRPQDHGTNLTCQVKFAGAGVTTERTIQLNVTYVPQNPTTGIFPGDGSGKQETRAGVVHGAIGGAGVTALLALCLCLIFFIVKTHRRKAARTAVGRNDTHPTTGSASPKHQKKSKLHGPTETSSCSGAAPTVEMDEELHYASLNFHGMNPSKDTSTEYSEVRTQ
T2 sequence (chain, as listed by the source limits assumed): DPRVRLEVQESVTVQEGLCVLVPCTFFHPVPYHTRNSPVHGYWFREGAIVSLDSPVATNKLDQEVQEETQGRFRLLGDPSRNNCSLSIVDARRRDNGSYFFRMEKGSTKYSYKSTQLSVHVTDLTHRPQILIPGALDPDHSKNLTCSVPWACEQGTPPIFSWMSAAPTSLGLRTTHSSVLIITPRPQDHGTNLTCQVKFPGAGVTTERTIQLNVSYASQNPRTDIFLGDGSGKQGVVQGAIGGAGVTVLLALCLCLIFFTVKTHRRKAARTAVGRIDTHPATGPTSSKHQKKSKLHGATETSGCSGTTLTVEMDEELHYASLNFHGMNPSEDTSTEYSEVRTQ

B1: HILE (antibody, V domains shown)
VH: QVQLVQSGAEVKKPGASVKVSCKASGYTFTNYDINWVRQAPGQGLEWIGWIYPGDGSTKYNEKFKAKATLTADTSTSTAYMELRSLRSDDTAVYYCASGYEDAMDYWGQGTTVTVSS
VL: DIQMTQSPSSLSASVGDRVTITCKASQDINSYLSWFQQKPGKAPKSLIYRANRLVDGVPSRFSGSGSGTDYTLTISSLQPEDFATYYCLQYDEFPLTFGGGTKVEIK
notes: Humanized antibody, heavy chain HI with light chain LE
Consider B1, for which the 50% effective concentration (EC50) (in general, the concentration giving half of the maximal effect) with human CD33 [1] was 11.1 nM; in the experiment with cynomolgus CD33, 64.8 nM; with human CD33 [2], 19.3 nM.

B2: HILA (antibody, V domains shown)
VH: QVQLVQSGAEVKKPGASVKVSCKASGYTFTNYDINWVRQAPGQGLEWIGWIYPGDGSTKYNEKFKAKATLTADTSTSTAYMELRSLRSDDTAVYYCASGYEDAMDYWGQGTTVTVSS
VL: DIQMTQSPSSLSASVGDRVTITCKASQDINSYLSWFQQKPGKAPKSLIYRANRLVDGVPSRFSGSGSGTDFTLTISSLQPEDFATYYCLQYDEFPLTFGGGTKVEIK
notes: Humanized antibody, heavy chain HI with light chain LA
Take B2: the EC50 is 12.2 nM in the experiment with human CD33 [1], 126 nM with cynomolgus CD33 and 26.8 nM in the experiment with human CD33 [2].

B3: HCLE (antibody, V domains shown)
VH: QVQLVQSGAEVKKPGASVKVSCKASGYTFTNYDINWVRQAPGQGLEWMGWIYPGDGSTKYNEKFKARVTMTTDTSTSTAYMELRSLRSDDTAVYYCASGYEDAMDYWGQGTTVTVSS
VL: DIQMTQSPSSLSASVGDRVTITCKASQDINSYLSWFQQKPGKAPKSLIYRANRLVDGVPSRFSGSGSGTDYTLTISSLQPEDFATYYCLQYDEFPLTFGGGTKVEIK
notes: Humanized antibody, heavy chain HC with light chain LE
In the case of B3, the EC50 with human CD33 [1] worked out at 12.8 nM; in the experiment with cynomolgus CD33 it was 129 nM; in the experiment with human CD33 [2] it was 22.2 nM.

B4: HCLA (antibody, V domains shown)
VH: QVQLVQSGAEVKKPGASVKVSCKASGYTFTNYDINWVRQAPGQGLEWMGWIYPGDGSTKYNEKFKARVTMTTDTSTSTAYMELRSLRSDDTAVYYCASGYEDAMDYWGQGTTVTVSS
VL: DIQMTQSPSSLSASVGDRVTITCKASQDINSYLSWFQQKPGKAPKSLIYRANRLVDGVPSRFSGSGSGTDFTLTISSLQPEDFATYYCLQYDEFPLTFGGGTKVEIK
notes: Humanized antibody, heavy chain HC with light chain LA
On to B4, for which the EC50 in the experiment with human CD33 [1] was found to be 13.6 nM; with cynomolgus CD33 it was 141 nM; with human CD33 [2], 31.7 nM.

B5: HCLG (antibody, V domains shown)
VH: QVQLVQSGAEVKKPGASVKVSCKASGYTFTNYDINWVRQAPGQGLEWMGWIYPGDGSTKYNEKFKARVTMTTDTSTSTAYMELRSLRSDDTAVYYCASGYEDAMDYWGQGTTVTVSS
VL: DIQMTQSPSSLSASVGDRVTINCKASQDINSYLSWFQQKPGKAPKTLIYRANRLVDGVPSRFSGSGSGQDYTLTISSLQPEDFATYYCLQYDEFPLTFGGGTKVEIK
notes: Humanized antibody, heavy chain HC with light chain LG
For the molecule B5, the EC50 was found to be 7.9 nM in the experiment with human CD33 [1], 63 nM with cynomolgus CD33 and 17.9 nM with human CD33 [2].

B6: h2H12 antibody (2H12 HILG) (antibody, V domains shown)
VH: QVQLVQSGAEVKKPGASVKVSCKASGYTFTNYDINWVRQAPGQGLEWIGWIYPGDGSTKYNEKFKAKATLTADTSTSTAYMELRSLRSDDTAVYYCASGYEDAMDYWGQGTTVTVSS
VL: DIQMTQSPSSLSASVGDRVTINCKASQDINSYLSWFQQKPGKAPKTLIYRANRLVDGVPSRFSGSGSGQDYTLTISSLQPEDFATYYCLQYDEFPLTFGGGTKVEIK
notes: also called humanized 2H12; human 2H12 antibody
Regarding B6, the EC50 is 7.8 nM with human CD33 [1], 39.9 nM in the experiment with cynomolgus CD33, 3.39 nM in the experiment with human CD33 [3] and 14.4 nM in the experiment with human CD33 [2].

B7: murine mAb 2H12 (antibody, V domains shown)
VH: QVQLQQSGPELVRPGTFVKISCKASGYTFTNYDINWVNQRPGQGLEWIGWIYPGDGSTKYNEKFKAKATLTADKSSSTAYLQLNNLTSENSAVYFCASGYEDAMDYWGQGTSVTVSS
VL: DIKMTQSPSSMYASLGERVIINCKASQDINSYLSWFQQKPGKSPKTLIYRANRLVDGVPSRFSGSGSGQDYSLTISSLEYEDMGIYYCLQYDEFPLTFGAGTKLELK
notes: Murine monoclonal antibody from Balb/c mice; also called m2H12; murine 2H12 antibody
Turning to B7, the EC50 was found to be 5.4 nM with human CD33 [1], 30.6 nM with cynomolgus CD33, 2.38 nM in the experiment with human CD33 [3] and 11.6 nM in the experiment with human CD33 [2].

B8: c2H12 (antibody, V domains shown)
VH: QVQLQQSGPELVRPGTFVKISCKASGYTFTNYDINWVNQRPGQGLEWIGWIYPGDGSTKYNEKFKAKATLTADKSSSTAYLQLNNLTSENSAVYFCASGYEDAMDYWGQGTSVTVSS
VL: DIKMTQSPSSMYASLGERVIINCKASQDINSYLSWFQQKPGKSPKTLIYRANRLVDGVPSRFSGSGSGQDYSLTISSLEYEDMGIYYCLQYDEFPLTFGAGTKLELK
notes: also called chimeric 2H12
With B8, the response in the experiment with human CD33 [3] was half-maximal at 1.97 nM (EC50).

B9: cHLA (antibody, V domains shown)
VH: QVQLQQSGPELVRPGTFVKISCKASGYTFTNYDINWVNQRPGQGLEWIGWIYPGDGSTKYNEKFKAKATLTADKSSSTAYLQLNNLTSENSAVYFCASGYEDAMDYWGQGTSVTVSS
VL: DIQMTQSPSSLSASVGDRVTITCKASQDINSYLSWFQQKPGKAPKSLIYRANRLVDGVPSRFSGSGSGTDFTLTISSLQPEDFATYYCLQYDEFPLTFGGGTKVEIK
notes: Hybrid of the chimeric heavy chain (murine VH, human constant region) and humanized light chain LA
The molecule B9 gave an EC50 with human CD33 [3] of 2.61 nM.

B10: HIcL (antibody, V domains shown)
VH: QVQLVQSGAEVKKPGASVKVSCKASGYTFTNYDINWVRQAPGQGLEWIGWIYPGDGSTKYNEKFKAKATLTADTSTSTAYMELRSLRSDDTAVYYCASGYEDAMDYWGQGTTVTVSS
VL: DIKMTQSPSSMYASLGERVIINCKASQDINSYLSWFQQKPGKSPKTLIYRANRLVDGVPSRFSGSGSGQDYSLTISSLEYEDMGIYYCLQYDEFPLTFGAGTKLELK
notes: Hybrid of humanized heavy chain HI and the chimeric light chain (murine VL, human constant region)
On to B10, for which a half-maximal effect in the experiment with human CD33 [3] (EC50) was put at 2.56 nM.

B11: cHLD (antibody, V domains shown)
VH: QVQLQQSGPELVRPGTFVKISCKASGYTFTNYDINWVNQRPGQGLEWIGWIYPGDGSTKYNEKFKAKATLTADKSSSTAYLQLNNLTSENSAVYFCASGYEDAMDYWGQGTSVTVSS
VL: DIQMTQSPSSLSASVGDRVTITCKASQDINSYLSWFQQKPGKAPKSLIYRANRLVDGVPSRFSGSGSGQDFTLTISSLQPEDFATYYCLQYDEFPLTFGGGTKVEIK
notes: Hybrid of the chimeric heavy chain (murine VH, human constant region) and humanized light chain LD
In the experiment with human CD33 [3], B11 registered an EC50 of 2.48 nM.

B12: cHLE (antibody, V domains shown)
VH: QVQLQQSGPELVRPGTFVKISCKASGYTFTNYDINWVNQRPGQGLEWIGWIYPGDGSTKYNEKFKAKATLTADKSSSTAYLQLNNLTSENSAVYFCASGYEDAMDYWGQGTSVTVSS
VL: DIQMTQSPSSLSASVGDRVTITCKASQDINSYLSWFQQKPGKAPKSLIYRANRLVDGVPSRFSGSGSGTDYTLTISSLQPEDFATYYCLQYDEFPLTFGGGTKVEIK
notes: Hybrid of the chimeric heavy chain (murine VH, human constant region) and humanized light chain LE
Regarding B12, in the experiment with human CD33 [3], the EC50 came out at 1.95 nM.

B13: cHLG (antibody, V domains shown)
VH: QVQLQQSGPELVRPGTFVKISCKASGYTFTNYDINWVNQRPGQGLEWIGWIYPGDGSTKYNEKFKAKATLTADKSSSTAYLQLNNLTSENSAVYFCASGYEDAMDYWGQGTSVTVSS
VL: DIQMTQSPSSLSASVGDRVTINCKASQDINSYLSWFQQKPGKAPKTLIYRANRLVDGVPSRFSGSGSGQDYTLTISSLQPEDFATYYCLQYDEFPLTFGGGTKVEIK
notes: Hybrid of the chimeric heavy chain (murine VH, human constant region) and humanized light chain LG
B13 registered an EC50 with human CD33 [3] of 1.91 nM. The EC50 values of the last two molecules are within 1.5-fold of each other.

B14: cHLF (antibody, V domains shown)
VH: QVQLQQSGPELVRPGTFVKISCKASGYTFTNYDINWVNQRPGQGLEWIGWIYPGDGSTKYNEKFKAKATLTADKSSSTAYLQLNNLTSENSAVYFCASGYEDAMDYWGQGTSVTVSS
VL: DIQMTQSPSSLSASVGDRVIINCKASQDINSYLSWFQQKPGKAPKSLIYRANRLVDGVPSRFSGSGSGTDFTLTISSLQPEDFATYYCLQYDEFPLTFGGGTKVEIK
notes: Hybrid of the chimeric heavy chain (murine VH, human constant region) and humanized light chain LF
Molecule B14 gave an EC50 with human CD33 [3] of 2.02 nM.

B15: HCcL (antibody, V domains shown)
VH: QVQLVQSGAEVKKPGASVKVSCKASGYTFTNYDINWVRQAPGQGLEWMGWIYPGDGSTKYNEKFKARVTMTTDTSTSTAYMELRSLRSDDTAVYYCASGYEDAMDYWGQGTTVTVSS
VL: DIKMTQSPSSMYASLGERVIINCKASQDINSYLSWFQQKPGKSPKTLIYRANRLVDGVPSRFSGSGSGQDYSLTISSLEYEDMGIYYCLQYDEFPLTFGAGTKLELK
notes: Hybrid of humanized heavy chain HC and the chimeric light chain (murine VL, human constant region)
With B15, in the experiment with human CD33 [3], the EC50 is 2.95 nM.

B16: cHLB (antibody, V domains shown)
VH: QVQLQQSGPELVRPGTFVKISCKASGYTFTNYDINWVNQRPGQGLEWIGWIYPGDGSTKYNEKFKAKATLTADKSSSTAYLQLNNLTSENSAVYFCASGYEDAMDYWGQGTSVTVSS
VL: DIKMTQSPSSLSASVGDRVTITCKASQDINSYLSWFQQKPGKAPKSLIYRANRLVDGVPSRFSGSGSGTDFTLTISSLQPEDFATYYCLQYDEFPLTFGGGTKVEIK
notes: Hybrid of the chimeric heavy chain (murine VH, human constant region) and humanized light chain LB
B16 came in with an EC50 in the experiment with human CD33 [3] of 2.53 nM. This EC50 and that of the molecule before are within 1.5-fold of each other.

B17: cHLC (antibody, V domains shown)
VH: QVQLQQSGPELVRPGTFVKISCKASGYTFTNYDINWVNQRPGQGLEWIGWIYPGDGSTKYNEKFKAKATLTADKSSSTAYLQLNNLTSENSAVYFCASGYEDAMDYWGQGTSVTVSS
VL: DIQMTQSPSSLSASVGDRVTITCKASQDINSYLSWFQQKPGKAPKTLIYRANRLVDGVPSRFSGSGSGTDFTLTISSLQPEDFATYYCLQYDEFPLTFGGGTKVEIK
notes: Hybrid of the chimeric heavy chain (murine VH, human constant region) and humanized light chain LC
For the molecule B17, the response with human CD33 [3] was half-maximal at 2.49 nM (EC50).
